The record followed here is patent US20120100139A1 (APTEVO RESEARCH AND DEVELOPMENT, published 2012).

T1: CD86-mIgG (Ancell, Inc) (UniProt P42081 24-247, limits assumed)
T1 construct: Bought reagent
T1 sequence (looked up): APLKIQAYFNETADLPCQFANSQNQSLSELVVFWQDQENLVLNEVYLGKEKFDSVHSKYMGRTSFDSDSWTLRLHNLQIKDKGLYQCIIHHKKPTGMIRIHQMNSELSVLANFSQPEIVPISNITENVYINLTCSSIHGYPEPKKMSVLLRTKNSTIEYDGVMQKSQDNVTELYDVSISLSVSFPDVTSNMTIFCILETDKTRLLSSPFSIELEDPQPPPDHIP

B1: FUN1 mAb (parent murine anti-CD86 monoclonal antibody) (antibody, V domains shown)
VH: EVQLQQSGPELEKPGASVKISCKASGYSFTDYNMNWVKQSNGKSLEWIGNIDPYYGGTSYNQKFKGKATLTVDKSSSTAYMQLNSLTSEDSAVYFCARWDYRYDDGRAYYVMDFWGQGTSVTVSS
VL: ELQMTQSPSSLAASAGEKVTMSCKSSQSVLYSSNQKNYLAWYQQKPGQSPKLLIYWASTRESGVPDRFTGSGSGTHFTLTVSSVQAEDLAVYYCHQYLYSWTFGGGTNLEIKR
notes: Murine monoclonal antibody; also called FUN1 antibody
B2: IL10::3D1 xceptor (Fc fusion)
chain: SPGQGTQSENSCTHFPGNLPNMLRDLRDAFSRVKTFFQMKDQLDNLLLKESLLEDFKGYLGCQALSEMIQFYLEEVMPQAENQDPDIKAHVNSLGENLKTLRLRLRRCHRFLPCENKSKAVEQVKNAFNKLQEKGIYKAMSEFDIFINYIEAYITMKIRNLEPKSSDKTHTCPPCPAPEAAGAPSVFLFPPKPKDTLMISRTPEVTCVVVDVSHEDPEVKFNWYVDGVEVHNAKTKPREEQYNSTYRVVSVLTVLHQDWLNGKAYACAVSNKALPAPIEKTISKAKGQPREPQVYTLPPSRDELTKNQVSLTCLVKGFYPSDIAVEWESNGQPENNYKTTPPVLDSDGSFFLYSKLTVDKSRWQQGNVFSCSVMHEALHNHYTQKSLSLSPGNSLFNQEVQIPLTESYSPNSQVQLQQSGPELVRPGESVKISCKGSGYTFTDYAIQWVKQSHAKSLEWIGVINIYYDNTNYNQKFKGKATMTVDKSSSTAYMELARLTSEDSAIYYCARAAWYMDYWGQGTSVTVSSGGGGSGGGGSGGGGSGGGGSDIVLSQSPSSLAVSAGEKVTMSCKSSQSLLNSRTRENYLAWYQQKPGQSPKLLIYWASTRESGVPDRFTGSGSGTDFTLTISSVQAEDLAVYYCTQSYNLYTFGGGTKLEIK
B3: FUN1-21 PIMS (Fc fusion)
chain: EPKSSDKTHTCPPCPAPEAAGAPSVFLFPPKPKDTLMISRTPEVTCVVVDVSHEDPEVKFNWYVDGVEVHNAKTKPREEQYNSTYRVVSVLTVLHQDWLNGKAYACAVSNKALPAPIEKTISKAKGQPREPQVYTLPPSRDELTKNQVSLTCLVKGFYPSDIAVEWESNGQPENNYKTTPPVLDSDGSFFLYSKLTVDKSRWQQGNVFSCSVMHEALHNHYTQKSLSLSPGNSLFNQEVQIPLTESYSPNSQVQLVQSGAEVKKPGASVKVSCKASGYTFTDYNMNWVRQAPGQGLEWMGNIDPYYGGTSYNQKFKGRVTMTRDTSISTAYMELSRLRSDDTAVYYCARWDYRYDDGRAYYVMDFWGQGTTVTVSSGGGGSGGGGSGGGGSGGGGSDIVMTQSPDSLAVSLGERATINCKSSQSVLYSSNQKNYLAWYQQKPGQPPKLLIYWASTRESGVPDRFSGSGSGTDFTLTISSLQAEDVAVYYCHQYLYSWTFGQGTKLEIKR
notes: PIMS: humanized FUN1-21 scFv at the carboxy-terminus
B4: 3D1 SMIP (Fc fusion)
chain: QVQLQQSGPELVRPGESVKISCKGSGYTFTDYAIQWVKQSHAKSLEWIGVINIYYDNTNYNQKFKGKATMTVDKSSSTAYMELARLTSEDSAIYYCARAAWYMDYWGQGTSVTVSSGGGGSGGGGSGGGGSGGGGSDIVLSQSPSSLAVSAGEKVTMSCKSSQSLLNSRTRENYLAWYQQKPGQSPKLLIYWASTRESGVPDRFTGSGSGTDFTLTISSVQAEDLAVYYCTQSYNLYTFGGGTKLEIKLEPKSSDKTHTCPPCPAPEAAGAPSVFLFPPKPKDTLMISRTPEVTCVVVDVSHEDPEVKFNWYVDGVEVHNAKTKPREEQYNSTYRVVSVLTVLHQDWLNGKAYACAVSNKALPAPIEKTISKAKGQPREPQVYTLPPSRDELTKNQVSLTCLVKGFYPSDIAVEWESNGQPENNYKTTPPVLDSDGSFFLYSKLTVDKSRWQQGNVFSCSVMHEALHNHYTQKSLSLSPG
notes: SMIP: murine 3D1 scFv at the N-terminus of a hinge-Fc single chain
B5: 3D1::IL10 xceptor (Fc fusion)
chain: QVQLQQSGPELVRPGESVKISCKGSGYTFTDYAIQWVKQSHAKSLEWIGVINIYYDNTNYNQKFKGKATMTVDKSSSTAYMELARLTSEDSAIYYCARAAWYMDYWGQGTSVTVSSGGGGSGGGGSGGGGSGGGGSDIVLSQSPSSLAVSAGEKVTMSCKSSQSLLNSRTRENYLAWYQQKPGQSPKLLIYWASTRESGVPDRFTGSGSGTDFTLTISSVQAEDLAVYYCTQSYNLYTFGGGTKLEIKLEPKSSDKTHTCPPCPAPEAAGAPSVFLFPPKPKDTLMISRTPEVTCVVVDVSHEDPEVKFNWYVDGVEVHNAKTKPREEQYNSTYRVVSVLTVLHQDWLNGKAYACAVSNKALPAPIEKTISKAKGQPREPQVYTLPPSRDELTKNQVSLTCLVKGFYPSDIAVEWESNGQPENNYKTTPPVLDSDGSFFLYSKLTVDKSRWQQGNVFSCSVMHEALHNHYTQKSLSLSPGNSLFNQEVQIPLTESYSPNSSPGQGTQSENSCTHFPGNLPNMLRDLRDAFSRVKTFFQMKDQLDNLLLKESLLEDFKGYLGCQALSEMIQFYLEEVMPQAENQDPDIKAHVNSLGENLKTLRLRLRRCHRFLPCENKSKAVEQVKNAFNKLQEKGIYKAMSEFDIFINYIEAYMTMKIRN
notes: anti-CD86 3D1 scFv - Fc - IL10
B6: FUN1-21 humanized FUN1 SMIP (Fc fusion)
chain: QVQLVQSGAEVKKPGASVKVSCKASGYTFTDYNMNWVRQAPGQGLEWMGNIDPYYGGTSYNQKFKGRVTMTRDTSISTAYMELSRLRSDDTAVYYCARWDYRYDDGRAYYVMDFWGQGTTVTVSSGGGGSGGGGSGGGGSGGGGSDIVMTQSPDSLAVSLGERATINCKSSQSVLYSSNQKNYLAWYQQKPGQPPKLLIYWASTRESGVPDRFSGSGSGTDFTLTISSLQAEDVAVYYCHQYLYSWTFGQGTKLEIKRLEPKSSDKTHTCPPCPAPEAAGAPSVFLFPPKPKDTLMISRTPEVTCVVVDVSHEDPEVKFNWYVDGVEVHNAKTKPREEQYNSTYRVVSVLTVLHQDWLNGKAYACAVSNKALPAPIEKTISKAKGQPREPQVYTLPPSRDELTKNQVSLTCLVKGFYPSDIAVEWESNGQPENNYKTTPPVLDSDGSFFLYSKLTVDKSRWQQGNVFSCSVMHEALHNHYTQKSLSLSPG
notes: SMIP: scFv-hinge-Fc single chain
B7: FUN1-11 humanized FUN1 SMIP (Fc fusion)
chain: EVQLVQSGAEVKKPGATVKISCKVSGYTFTDYNMNWVQQAPGKGLEWMGNIDPYYGGTSYNQKFKGRVTITADTSTDTAYMELSSLRSEDTAVYYCATWDYRYDDGRAYYVMDFWGQGTTVTVSSGGGGSGGGGSGGGGSGGGGSDIVMTQSPDSLAVSLGERATINCKSSQSVLYSSNQKNYLAWYQQKPGQPPKLLIYWASTRESGVPDRFSGSGSGTDFTLTISSLQAEDVAVYYCHQYLYSWTFGQGTKLEIKRLEPKSSDKTHTCPPCPAPEAAGAPSVFLFPPKPKDTLMISRTPEVTCVVVDVSHEDPEVKFNWYVDGVEVHNAKTKPREEQYNSTYRVVSVLTVLHQDWLNGKAYACAVSNKALPAPIEKTISKAKGQPREPQVYTLPPSRDELTKNQVSLTCLVKGFYPSDIAVEWESNGQPENNYKTTPPVLDSDGSFFLYSKLTVDKSRWQQGNVFSCSVMHEALHNHYTQKSLSLSPG
notes: as for B6
B8: SEQ ID NO: 328 (Fc fusion)
chain: EPKSSDKTHTCPPCPAPEAAGAPSVFLFPPKPKDTLMISRTPEVTCVVVDVSHEDPEVKFNWYVDGVEVHNAKTKPREEQYNSTYRVVSVLTVLHQDWLNGKAYACAVSNKALPAPIEKTISKAKGQPREPQVYTLPPSRDELTKNQVSLTCLVKGFYPSDIAVEWESNGQPENNYKTTPPVLDSDGSFFLYSKLTVDKSRWQQGNVFSCSVMHEALHNHYTQKSLSLSPGNSLFNQEVQIPLTESYSPNSQVQLQQSGPELVRPGESVKISCKGSGYTFTDYAIQWVKQSHAKSLEWIGVINIYYDNTNYNQKFKGKATMTVDKSSSTAYMELARLTSEDSAIYYCARAAWYMDYWGQGTSVTVSSGGGGSGGGGSGGGGSGGGGSDIVLSQSPSSLAVSAGEKVTMSCKSSQSLLNSRTRENYLAWYQQKPGQSPKLLIYWASTRESGVPDRFTGSGSGTDFTLTISSVQAEDLAVYYCTQSYNLYTFGGGTKLEIK
notes: also called 3D1 PIMS (probably)

One experiment deals with T1, CD86-mIgG (Ancell, Inc). Briefly: SPR (BIAcore T100), CD86-mIgG immobilized on CM5; first site. How it is done:
(§1) SPR measurements were performed on a BIAcore™ T100 SPR (Pharmacia Biotech AB, Uppsala) using HBS-EP+ (GE Healthcare) as a running buffer. […] CTLA4-containing constructs were injected for 150 seconds, at a flow rate of 10 μl/min, in a series of concentrations from 4 nM to 10 μM. Dissociation was monitored for 600 seconds, and the surface was either regenerated by injecting 50 mM sodium citrate, 500 mM sodium chloride, pH 5.0, for 60 seconds (wild type CTLA4) or 10 mM glycine, pH 1.7 (L104E A29Y CTLA4). […] Data were analyzed using BiaEvaluation for the T100 software (version 2.0.1, GE Healthcare).
(§2) SPR measurements were performed as listed above, with the following exceptions: HBS-P+ (GE Healthcare) was used as a running buffer; dissociation was monitored for 1200 seconds; and the surface was regenerated by injecting 10 mM glycine, pH 1.7, for 60 seconds.
As for B1, the dissociation rate constant (koff) is 2.28e-05 s⁻¹ and the kon worked out at 129000 M⁻¹ s⁻¹.

B2: the koff stood at 8.3e-05 s⁻¹ and the kon turned out to be 617000 M⁻¹ s⁻¹.

With B3, the koff was 9.1e-05 s⁻¹ and the kon was found to be 50000 M⁻¹ s⁻¹.

Consider B4, for which the koff is 4.4e-05 s⁻¹ and the kon turned out to be 323000 M⁻¹ s⁻¹.

Regarding B5, the koff stood at 7.06e-05 s⁻¹ and the kon amounted to 974000 M⁻¹ s⁻¹.

In turn, B6 gave a koff of 0.000139 s⁻¹ and a kon of 186000 M⁻¹ s⁻¹.

As to B7, the koff is 0.00035 s⁻¹ and the kon came to 13900 M⁻¹ s⁻¹.

On to B8, for which the koff worked out at 2.37e-05 s⁻¹ and the kon is 112000 M⁻¹ s⁻¹.

Another experiment concerns the target T1, CD86-mIgG (Ancell, Inc). The experiment in a line: SPR (BIAcore T100), CD86-mIgG immobilized on CM5; second site. How it is done:
as §1, §2
On to B1, for which the “Second Site ka” value stood at 0.00278 s⁻¹ and the “Second Site kd” value was found to be 0.0154 s⁻¹.

Take B2: the “Second Site ka” value was 0.0124 s⁻¹ and the “Second Site kd” value worked out at 0.102 s⁻¹.

Regarding B3, the “Second Site ka” value worked out at 0.00113 s⁻¹ and the “Second Site kd” value worked out at 0.00837 s⁻¹.

Take B4: the “Second Site ka” value came out at 0.0055 s⁻¹ and the “Second Site kd” value stood at 0.0276 s⁻¹.

Consider B5, for which the “Second Site ka” value came to 0.0094 s⁻¹ and the “Second Site kd” value was determined as 0.0462 s⁻¹.

Turning to B6, the “Second Site ka” value worked out at 0.00578 s⁻¹ and the “Second Site kd” value amounted to 0.0127 s⁻¹.

In the case of B7, the “Second Site ka” value worked out at 7.5e-05 s⁻¹ and the “Second Site kd” value was found to be 1.25e-06 s⁻¹.

For B8, the “Second Site ka” value was determined as 0.00077 s⁻¹ and the “Second Site kd” value amounted to 0.00377 s⁻¹.

In a further experiment the target is T1, CD86-mIgG (Ancell, Inc). Briefly: SPR (BIAcore T100), CD86-mIgG immobilized on CM5; steady-state equilibrium fit. How it is done:
as §1, §2
Turning to B1, the Kd is 36 nM.

The molecule B2 showed a Kd of 35.7 nM.

Molecule B3 yielded a Kd of 70.9 nM.

The molecule B4 came in with a Kd of 11.7 nM.

On to B5, for which the Kd was 26.5 nM.

B6 gave a Kd of 26.9 nM.

B7: the Kd was 119 nM.

Take B8: binding was put at a Kd of 28 nM.
